Reference: paper PMC2688778 (Structure (London, England : 1993), 2009)

What was measured:
Test in all cases: fluorescence anisotropy
[1] = molecular target: T1, RecE564 Y785A (Escherichia coli K12, UniProt P15032 564-866, Y785A)
T1 sequence: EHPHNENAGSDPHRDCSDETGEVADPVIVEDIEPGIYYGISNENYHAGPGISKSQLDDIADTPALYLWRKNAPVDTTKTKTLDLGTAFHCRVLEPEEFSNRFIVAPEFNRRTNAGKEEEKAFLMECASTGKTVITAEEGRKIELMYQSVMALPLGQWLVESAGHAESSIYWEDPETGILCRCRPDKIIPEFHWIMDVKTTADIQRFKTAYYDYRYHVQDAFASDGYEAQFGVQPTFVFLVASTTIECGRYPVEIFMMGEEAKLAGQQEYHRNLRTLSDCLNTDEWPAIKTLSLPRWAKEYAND

[2] = molecular target: T2, RecE564 K704A (Escherichia coli K12, UniProt P15032 564-866, K704A)
T2 sequence: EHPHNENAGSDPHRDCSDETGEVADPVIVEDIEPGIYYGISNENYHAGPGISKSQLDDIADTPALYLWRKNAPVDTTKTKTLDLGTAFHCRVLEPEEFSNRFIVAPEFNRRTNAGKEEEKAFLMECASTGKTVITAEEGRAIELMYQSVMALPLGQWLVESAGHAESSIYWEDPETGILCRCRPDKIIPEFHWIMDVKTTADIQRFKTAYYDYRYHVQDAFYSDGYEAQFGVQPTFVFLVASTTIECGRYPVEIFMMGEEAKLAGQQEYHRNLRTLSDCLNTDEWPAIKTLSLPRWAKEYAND

[3] = molecular target: T3, RecE564 E657A (Escherichia coli K12, UniProt P15032 564-866, E657A)
T3 sequence: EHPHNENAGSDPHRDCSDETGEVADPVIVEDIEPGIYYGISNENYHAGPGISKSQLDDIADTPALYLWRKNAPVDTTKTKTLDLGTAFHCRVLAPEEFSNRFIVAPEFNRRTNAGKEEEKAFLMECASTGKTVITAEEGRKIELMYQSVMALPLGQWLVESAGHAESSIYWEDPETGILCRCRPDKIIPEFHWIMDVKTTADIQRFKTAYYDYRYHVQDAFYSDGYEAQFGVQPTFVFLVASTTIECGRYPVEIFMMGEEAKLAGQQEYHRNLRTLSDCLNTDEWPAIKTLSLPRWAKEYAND

[4] = molecular target: T4, RecE564 S615A (Escherichia coli K12, UniProt P15032 564-866, S615A)
T4 sequence: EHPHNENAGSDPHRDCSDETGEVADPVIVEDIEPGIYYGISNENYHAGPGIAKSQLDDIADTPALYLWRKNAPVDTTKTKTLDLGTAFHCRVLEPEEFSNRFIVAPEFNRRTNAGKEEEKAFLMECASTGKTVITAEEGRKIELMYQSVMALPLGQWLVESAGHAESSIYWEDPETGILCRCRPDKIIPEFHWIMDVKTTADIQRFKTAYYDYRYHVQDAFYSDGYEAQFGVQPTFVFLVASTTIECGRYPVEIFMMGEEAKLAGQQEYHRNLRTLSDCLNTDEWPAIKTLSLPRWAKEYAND

[5] = molecular target: T5, RecE564 H609A (Escherichia coli K12, UniProt P15032 564-866, H609A)
T5 sequence: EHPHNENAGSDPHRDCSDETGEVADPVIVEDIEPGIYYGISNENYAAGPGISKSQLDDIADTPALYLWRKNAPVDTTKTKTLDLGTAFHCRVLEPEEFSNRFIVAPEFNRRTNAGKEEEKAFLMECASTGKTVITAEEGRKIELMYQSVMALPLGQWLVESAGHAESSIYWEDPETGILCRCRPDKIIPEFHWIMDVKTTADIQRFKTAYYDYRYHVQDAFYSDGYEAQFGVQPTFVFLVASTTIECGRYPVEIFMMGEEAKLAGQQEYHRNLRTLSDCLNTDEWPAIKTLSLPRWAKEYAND

[6] = molecular target: T6, RecE564 K643A (Escherichia coli K12, UniProt P15032 564-866, K643A)
T6 sequence: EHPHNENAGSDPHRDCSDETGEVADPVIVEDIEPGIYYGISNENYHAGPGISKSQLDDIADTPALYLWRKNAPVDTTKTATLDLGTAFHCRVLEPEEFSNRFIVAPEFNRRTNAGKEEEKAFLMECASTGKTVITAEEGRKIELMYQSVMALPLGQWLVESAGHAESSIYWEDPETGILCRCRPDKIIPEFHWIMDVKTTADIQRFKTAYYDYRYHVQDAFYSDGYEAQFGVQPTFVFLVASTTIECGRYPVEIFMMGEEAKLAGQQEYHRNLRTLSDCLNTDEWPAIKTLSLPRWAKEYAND

B1: F25 (dsDNA)
DNA 1: TAGAGCTTAATTGCTGAATCTGGTG
DNA 2: CACCAGATTCAGCAATTAAGCTCTA
**Q.** Which results are given for B1?
**A.** Kd [1]: 98 ± 9 nM; Kd [2]: 330 ± 50 nM; Kd [3]: 90 ± 10 nM; Kd [4]: 100 ± 4 nM; Kd [5]: 50 ± 3 nM; Kd [6]: 210 ± 6 nM
